Data reported in publication PMC4072508, “Genome-Wide Prediction and Validation of Peptides That Bind Human Prosurvival Bcl-2 Proteins” (PLoS Computational Biology, 2014).

B1: CHMP5 (peptide)
chain: ELDEDDLEAELDALLDELLADEDSSY
B2: LRP1 (peptide)
chain: MRSQLGKATADAIMGDKLWWADQVSE
B3: FUT8 (peptide)
chain: KKLKNLEGNELQRHLDEFLLDLGHHE
B4: RAD52 (peptide)
chain: EAVTDGLKRALRSFLNALGNCILDKD
B5: SLC30A7 (peptide)
chain: ELLYGIWSNCLGLISDSFHMFFDSTA
B6: BBS10 (peptide)
chain: RMIVDCVSSHDKKTGDGAKTFIIFLC
B7: ZFP90 (peptide)
chain: PSECETLGSNLGHNLDLLNENNILAK
B8: WDR60 (peptide)
chain: GGRVKLVHSADIQLGDSLSHKGNEFW
B9: FTL (peptide)
chain: THFLDEEVKLDKKMGDHLTNLHRLGG
B10: DYNC1H1 (peptide)
chain: VLAPVQLGKWLVLFLDEINLPDMDKY
B11: PRDX4 (peptide)
chain: LDFTFVCPTEIIAFLDRLEEFRSINT
B12: BAK1 (peptide)
chain: SSTMGQVGRQDAIIGDDINRRYDSEF
B13: BAD (peptide)
chain: LWAAQRYGREDRRMSDEFVDSFKKGL
B14: CHMP5 (peptide)
chain: ELDEDDLEAEDDALGDELLADEDSSY
B15: XXXX (peptide)
chain: TAAAAYRGAHDRGRGRTVYNTFRAAA
B16: WDR60 (peptide)
chain: GGRVKLVHSALIQLLDSLSHKGNEFW
B17: CYP2A6 (peptide)
chain: MPYMEAVIHEDQRFGDVIPMSLARRV
B18: SLC38A8 (peptide)
chain: LNLLMISVAFLRVILDQLEKLCDSLL
B19: ST14 (peptide)
chain: FTCKNKFCKPLFWVLDSVNDCGDNSD
B20: USP40 (peptide)
chain: MSLFLRVVFSFTMFLDLFEEEYSTVS
B21: SLC30A7 (peptide)
chain: ELLYGIWSNCDGLISDSFHMFFDSTA
B22: FUT8 (peptide)
chain: KKLKNLEGNEDQRHADEFLLDLGHHE
B23: PCNXL2 (peptide)
chain: LLDFFMVSILDSKLGDLLHKLQFVLT
B24: IQGAP2 (peptide)
chain: ISSLDLLPYGLRYILKVLKNSIHEKF
B25: CTSL2 (peptide)
chain: SQGKHGFTMAMNAFLDMTNEEFRQMM
B26: ITGA7 (peptide)
chain: GSPDSMFGISDAVLGDLNQDGFPDIA
B27: MKI67 (peptide)
chain: SGLPGLSSVDDNNFGDSINESEGIPL
B28: MKI67 (peptide)
chain: SGLPGLSSVDINNFLDSINESEGIPL
B29: XXXX (peptide)
chain: GTAVAYRGAHLRGRLRAVYNTFRAAP
B30: TMEM184C (peptide)
chain: SDIRDDISEQVRHVLRTVRGHPRKKL
B31: DSN1 (peptide)
chain: RAKASSLSEELKHFLDGLETDGTLQK
B32: SYNE1 (peptide)
chain: VTLLSEVEKMDSNFGDCVQYKEIVKN

Key:
Test in all cases: peptide SPOT array, c-Myc-tagged receptor at 1 uM or 100 nM, anti-c-Myc-Cy3
Bcl-xL, Q07817 = molecular target: Bcl-xL, Q07817
Bcl-xL, Q07817, sequence (Q07817 1-209): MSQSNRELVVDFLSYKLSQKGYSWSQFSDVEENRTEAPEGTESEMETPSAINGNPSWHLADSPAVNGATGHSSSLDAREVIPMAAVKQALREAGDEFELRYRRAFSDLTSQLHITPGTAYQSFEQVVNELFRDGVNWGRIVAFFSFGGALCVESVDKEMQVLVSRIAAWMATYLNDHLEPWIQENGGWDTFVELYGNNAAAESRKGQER

Bfl-1, Q16548 = molecular target: T1, Bfl-1, Q16548
T1 chain: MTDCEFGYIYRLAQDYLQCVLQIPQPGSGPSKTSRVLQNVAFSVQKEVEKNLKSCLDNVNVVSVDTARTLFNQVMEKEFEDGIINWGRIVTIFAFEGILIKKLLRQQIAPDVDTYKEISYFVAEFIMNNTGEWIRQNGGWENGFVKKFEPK

Mcl-1, Q07820 = molecular target: T2, Mcl-1, Q07820
T2 chain: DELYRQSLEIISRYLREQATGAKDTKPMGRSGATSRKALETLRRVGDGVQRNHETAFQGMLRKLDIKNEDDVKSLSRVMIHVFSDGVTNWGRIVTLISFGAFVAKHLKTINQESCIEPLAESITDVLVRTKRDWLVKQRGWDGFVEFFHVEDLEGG

Binder	SPOT signal as a fraction of Bim BH3's signal on the same receptor and array (Bcl-xL, Q07817)	SPOT signal as a fraction of Bim BH3's signal on the same receptor and array (Bfl-1, Q16548)	SPOT signal as a fraction of Bim BH3's signal on the same receptor and array (Mcl-1, Q07820)
B1	0.06	0.03	0.03
B2	0.17	0.12	0.16
B3	0.08	0.04	0.05
B4	0.08	0.04	0.08
B5	0.07	0.06	0.06
B6	0.17	0.09	0.08
B7	0.1	0.04	0.04
B8	0.2	0.24	0.23
B9	0.07	0.03	0.05
B10	0.08	0.07	0.08
B11	0.05	0.04	0.05
B12	0.02	0.01	0.01
B13	0.53	0.3	0.51
B14	0.06	0.03	0.03
B15	2.54	1.4	1.43
B16	0.28	0.23	0.23

Binder	SPOT signal as a fraction of Bim BH3's signal on the same receptor and array (Bcl-xL, Q07817)	SPOT signal as a fraction of Bim BH3's signal on the same receptor and array (Bfl-1, Q16548)	SPOT signal as a fraction of Bim BH3's signal on the same receptor and array (Mcl-1, Q07820)
B17	0.07	0.04	0.07
B18	0.07	0.05	0.04
B19	0.23	0.12	0.27
B20	0.06	0.04	0.06
B21	0.06	0.05	0.05
B22	0.07	0.04	0.04
B23	0.09	0.04	0.06
B24	0.86	0.6	0.66
B25	0.07	0.06	0.11
B26	0.07	0.08	0.03
B27	0.08	0.04	0.03
B28	0.11	0.04	0.04
B29	2.49	1.48	1.44
B30	0.88	0.34	0.31
B31	0.26	0.17	0.18
B32	0.09	0.05	0.05
